Laboratory results as given in publication PMC3826915 (Nature medicine, 2013).
Each block holds one molecule with its values, some of them ahead of it.

B1: Recombinant human cold-inducible RNA-binding protein (rhCIRP) (natural protein, UniProt Q14011-1 1-172, looked up)
chain: MASDEGKLFVGGLSFDTNEQSLEQVFSKYGQISEVVVVKDRETQRSRGFGFVTFENIDDAKDAMMAMNGKSVDGRQIRVDQAGKSSDNRSRGYRGGSAGGRGFFRGGRGRGRGFSRGGGDRGYGGNRFESRSGGYGGSRDYYSSRSQSGGYSDRSSGGSYRDSYDSYATHNE

What was measured:
TLR4 (Homo sapiens) = TLR4 (Homo sapiens) (UniProt O00206); details: cited from earlier work
Sequence of TLR4 (Homo sapiens) (O00206 24-631): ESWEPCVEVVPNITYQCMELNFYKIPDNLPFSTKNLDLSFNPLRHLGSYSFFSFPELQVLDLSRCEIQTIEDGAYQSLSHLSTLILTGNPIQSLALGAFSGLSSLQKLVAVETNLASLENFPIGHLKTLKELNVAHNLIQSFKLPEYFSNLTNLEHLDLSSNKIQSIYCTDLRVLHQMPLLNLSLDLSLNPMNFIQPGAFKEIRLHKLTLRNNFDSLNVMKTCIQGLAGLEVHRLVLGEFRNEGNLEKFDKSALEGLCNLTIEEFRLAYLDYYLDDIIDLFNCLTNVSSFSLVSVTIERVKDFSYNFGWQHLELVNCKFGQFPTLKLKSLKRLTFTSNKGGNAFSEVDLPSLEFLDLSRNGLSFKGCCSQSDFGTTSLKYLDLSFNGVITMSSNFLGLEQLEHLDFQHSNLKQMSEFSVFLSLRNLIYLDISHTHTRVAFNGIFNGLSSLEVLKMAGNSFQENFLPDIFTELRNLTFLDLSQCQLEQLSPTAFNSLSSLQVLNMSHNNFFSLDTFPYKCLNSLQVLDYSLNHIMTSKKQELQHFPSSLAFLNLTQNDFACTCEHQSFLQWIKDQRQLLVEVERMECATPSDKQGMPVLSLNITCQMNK

TLR4/MD2 (Homo sapiens) = TLR4/MD2 (Homo sapiens) (UniProt O00206); assay: SPR; details: cited from earlier work
Sequence of TLR4/MD2 (Homo sapiens) (O00206 24-839): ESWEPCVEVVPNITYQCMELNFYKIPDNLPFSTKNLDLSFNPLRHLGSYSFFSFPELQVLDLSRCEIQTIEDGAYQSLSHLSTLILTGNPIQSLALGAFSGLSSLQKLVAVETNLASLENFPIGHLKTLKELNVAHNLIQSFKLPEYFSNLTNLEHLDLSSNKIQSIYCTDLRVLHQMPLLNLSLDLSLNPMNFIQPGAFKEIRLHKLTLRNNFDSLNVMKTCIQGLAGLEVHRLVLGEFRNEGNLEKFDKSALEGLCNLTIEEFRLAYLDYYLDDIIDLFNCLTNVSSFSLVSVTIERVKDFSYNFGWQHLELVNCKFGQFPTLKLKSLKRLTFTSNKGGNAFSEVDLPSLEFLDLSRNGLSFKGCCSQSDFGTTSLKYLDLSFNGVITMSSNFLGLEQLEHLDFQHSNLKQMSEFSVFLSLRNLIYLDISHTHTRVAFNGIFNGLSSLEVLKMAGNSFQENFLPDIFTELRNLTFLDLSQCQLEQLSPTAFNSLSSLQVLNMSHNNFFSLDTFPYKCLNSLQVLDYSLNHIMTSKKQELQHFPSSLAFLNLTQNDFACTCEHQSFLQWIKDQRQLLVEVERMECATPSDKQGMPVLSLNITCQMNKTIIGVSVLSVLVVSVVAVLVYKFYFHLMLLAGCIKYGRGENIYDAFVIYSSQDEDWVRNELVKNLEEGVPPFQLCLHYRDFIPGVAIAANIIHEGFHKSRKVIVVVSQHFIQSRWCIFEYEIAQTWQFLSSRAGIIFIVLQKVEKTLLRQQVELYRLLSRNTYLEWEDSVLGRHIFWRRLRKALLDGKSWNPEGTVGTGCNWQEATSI

MD2 (Homo sapiens) = MD2 (Homo sapiens) (UniProt Q9Y6Y9); details: cited from earlier work
[1] = target: Recombinant human TLR4/MD2 complex (rhTLR4/MD2) (human, UniProt O00206 24-631; Q9Y6Y9 17-160); assay: SPR
Sequence of Recombinant human TLR4/MD2 complex (rhTLR4/MD2) (O00206 24-631, one chain of several): as the sequence (O00206 24-631) above

[2] = target: Recombinant human RAGE (rhRAGE), Ala23-Ala344 (human, UniProt Q15109 23-344); assay: SPR
Sequence of Recombinant human RAGE (rhRAGE), Ala23-Ala344 (Q15109 23-344): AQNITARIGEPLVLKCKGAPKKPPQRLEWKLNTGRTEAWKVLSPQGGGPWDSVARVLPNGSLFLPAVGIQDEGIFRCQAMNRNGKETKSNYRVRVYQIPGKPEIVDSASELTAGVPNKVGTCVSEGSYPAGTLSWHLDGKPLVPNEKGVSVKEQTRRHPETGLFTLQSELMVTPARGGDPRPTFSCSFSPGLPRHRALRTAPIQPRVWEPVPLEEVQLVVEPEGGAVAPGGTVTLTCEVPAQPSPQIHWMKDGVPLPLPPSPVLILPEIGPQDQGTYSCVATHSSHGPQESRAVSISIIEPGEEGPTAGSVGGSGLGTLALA

[3] = target: Recombinant human TLR2 (rhTLR2), Glu21-Leu590 (human, UniProt O60603 21-590); assay: SPR
Sequence of Recombinant human TLR2 (rhTLR2), Glu21-Leu590 (O60603 21-590): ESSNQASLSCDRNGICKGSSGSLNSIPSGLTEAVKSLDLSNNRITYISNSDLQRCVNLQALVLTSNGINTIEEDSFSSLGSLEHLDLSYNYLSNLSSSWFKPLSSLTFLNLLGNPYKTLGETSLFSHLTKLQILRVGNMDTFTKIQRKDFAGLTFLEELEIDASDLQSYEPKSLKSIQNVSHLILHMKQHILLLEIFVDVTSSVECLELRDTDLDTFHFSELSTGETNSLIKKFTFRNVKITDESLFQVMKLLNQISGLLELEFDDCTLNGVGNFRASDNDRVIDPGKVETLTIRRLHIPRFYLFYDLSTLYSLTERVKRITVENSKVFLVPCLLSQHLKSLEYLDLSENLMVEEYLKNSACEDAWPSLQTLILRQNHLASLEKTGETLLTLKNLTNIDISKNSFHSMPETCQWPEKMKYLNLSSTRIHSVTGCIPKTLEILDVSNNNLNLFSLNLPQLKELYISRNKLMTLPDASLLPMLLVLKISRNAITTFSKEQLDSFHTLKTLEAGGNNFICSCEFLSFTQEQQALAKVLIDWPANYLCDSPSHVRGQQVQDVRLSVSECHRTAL

[4] = target: Recombinant human TLR4 (rhTLR4), Glu24-Lys631 (human, UniProt O00206 24-631); assay: SPR
Sequence of Recombinant human TLR4 (rhTLR4), Glu24-Lys631 (O00206 24-631): as the sequence (O00206 24-631) above

[5] = target: B1; assay: SPR

Molecule: MD2 (from UniProt Q9Y6Y9)
Kd (TLR4 (Homo sapiens)): 62.9 nM

Molecule: HMGB1 (from UniProt P09429)
Kd (TLR4/MD2 (Homo sapiens)): 1500 nM
Kd (MD2 (Homo sapiens)): 8 nM

Molecule: B1
Kd [1]: 239 nM
Kd [2]: 33.1 nM
Kd [3]: 258 nM
Kd [4]: 617 nM

Kd [4]: 53.7 nM
Kd [5]: 302 nM
B2: Recombinant human MD2 (rhMD2), Glu17-Asn160 (natural protein, UniProt Q9Y6Y9 17-160, looked up)
chain: EAQKQYWVCNSSDASISYTYCDKMQYPISINVNPCIELKRSKGLLHIFYIPRRDLKQLYFNLYITVNTMNLPKRKEVICRGSDDDYSFCRALKGETVNTTISFSFKGIKFSKGKYKCVVEAISGSPEEMLFCLEFVILHQPNSN
